The record followed here is patent publication US20150190489A1 (ONCOTHERAPY SCIENCE, published 2015).

The assay deals with T1, HLA-DR15 (DRB1*15:02) (human).
T1 construct: whole, on cells; Expressed on mouse fibroblast L-cells (L-DR15) or on donor APCs; also called L-DR15
Put plainly: concluded from IFN-gamma ELISPOT with peptide-pulsed L-DR15 cells and HLA-blocking mAbs; no direct binding assay. As to the method:
The immune response of Th cells to APCs pulsed with peptides and proteins were assessed by IFN-gamma ELISPOT assays (Human IFN-gamma ELISPOT kit, BD Biosciences) as described previously (Tomita Y, et al. Cancer Sci; 102: 697-705.). Briefly, the frequency of peptide-specific CD4⁺ T cells producing IFN-gamma per 3×10⁴ bulk CD4⁺ T cells upon stimulation with peptide-pulsed PBMCs (3×10⁴), or 1×10⁴ bulk CD4⁺ T cells upon stimulation with peptide-pulsed L-cells (5×10⁴/well) expressing HLA-DR was analyzed. The frequency of cells producing IFN-gamma per 1×10⁵ CTLs upon stimulation with peptide-pulsed T2 cells (2×10⁴/well) or C1R-A2402 cells (2×10⁴/well) was also analyzed. Alternatively, 5×10³ protein-loaded DCs were co-cultured with 2×10⁴ CD4⁺ T cell clones/well. The protein-loaded mature DCs were prepared from positively isolated CD14⁺ cells (day 0) as described previously (Harao M, et al. Int J Cancer 2008; 123: 2616-25.). On day 5, the DCs were cultured in the presence of the recombinant KIF20A (50 micro-g/ml) and OK432. The protein-loaded mature DCs were harvested on day 7, washed and used as stimulator in IFN-gamma ELISPOT assays. […]

B1: KIF20A (60-84) (peptide)
peptide: DSMEKVKVYLRVRPLLPSELERQED
notes: Synthetic long peptide (purity >90%), pulsed on PBMCs, DCs or L-cell transfectants; also called KIF20A (60-84) LP; KIF20A (60-84) peptide
In the case of B1, the binding result is recorded as “binds”.
